We go through ten molecules from publication doi:10.1101/2024.07.01.601608 (bioRxiv, 2024).

First the molecules themselves.
B1: recombinant human CCNC-6xHis (baculovirus) (natural protein)
chain: MAGNFWQSSHYLQWILDKQDLLKERQKDLKFLSEEEYWKLQIFFTNVIQALGEHLKLRQQVIATATVYFKRFYARYSLKSIDPVLMAPTCVFLASKVEEFGVVSNTRLIAAATSVLKTRFSYAFPKEFPYRMNHILECEFYLLELMDCCLIVYHPYRPLLQYVQDMGQEDMLLPLAWRIVNDTYRTDLCLLYPPFMIALACLHVACVVQQKDARQWFAELSVDMEKILEIIRVILKLYEQWKNFDERKEMATILSKMPKPKPPPNSEGEQGPNGSQNSSYSQS
B2: CCNC (endogenous) (natural protein)
chain: B1 chain
B3: MED6 (endogenous) (natural protein)
chain: MAAVDIRDNLLGISWVDSSWIPILNSGSVLDYFSERSNPFYDRTCNNEVVKMQRLTLEHLNQMVGIEYILLHAQEPILFIIRKQQRQSPAQVIPLADYYIIAGVIYQAPDLGSVINSRVLTAVHGIQSAFDEAMSYCRYHPSKGYWWHFKDHEEQDKVRPKAKRKEEPSSIFQRQRVDALLLDLRQKFPPKFVQLKPGEKPVPVDQTKKEAEPIPETVKPEEKETTKNVQQTVSAKGPPEKRMRLQ
B4: MED18 (endogenous) (natural protein)
chain: MEAPPVTMMPVTGGTINMMEYLLQGSVLDHSLESLIHRLRGLCDNMEPETFLDHEMVFLLKGQQASPFVLRARRSMDRAGAPWHLRYLGQPEMGDKNRHALVRNCVDIATSENLTDFLMEMGFRMDHEFVAKGHLFRKGIMKIMVYKIFRILVPGNTDSTEALSLSYLVELSVVAPAGQDMVSDDMKNFAEQLKPLVHLEKIDPKRLM
B5: MED19 (endogenous) (natural protein)
chain: MENFTALFGAQADPPPPPTALGFGPGKPPPPPPPPAGGGPGTAPPPTAATAPPGADKSGAGCGPFYLMRELPGSTELTGSTNLITHYNLEQAYNKFCGKKVKEKLSNFLPDLPGMIDLPGSHDNSSLRSLIEKPPILSSSFNPITGTMLAGFRLHTGPLPEQCRLMHIQPPKKKNKHKHKQSRTQDPVPPETPSDSDHKKKKKKKEEDPDRKRKKKEKKKKKNRHSPDHPGMGSSQASSSSSLR
B6: MED17 (endogenous) (natural protein)
chain: MSGVRAVRISIESACEKQVHEVGLDGTETYLPPLSMSQNLARLAQRIDFSQGSGSEEEEAAGTEGDAQEWPGAGSSADQDDEEGVVKFQPSLWPWDSVRNNLRSALTEMCVLYDVLSIVRDKKFMTLDPVSQDALPPKQNPQTLQLISKKKSLAGAAQILLKGAERLTKSVTENQENKLQRDFNSELLRLRQHWKLRKVGDKILGDLSYRSAGSLFPHHGTFEVIKNTDLDLDKKIPEDYCPLDVQIPSDLEGSAYIKVSIQKQAPDIGDLGTVNLFKRPLPKSKPGSPHWQTKLEAAQNVLLCKEIFAQLSREAVQIKSQVPHIVVKNQIISQPFPSLQLSISLCHSSNDKKSQKFATEKQCPEDHLYVLEHNLHLLIREFHKQTLSSIMMPHPASAPFGHKRMRLSGPQAFDKNEINSLQSSEGLLEKIIKQAKHIFLRSRAAATIDSLASRIEDPQIQAHWSNINDVYESSVKVLITSQGYEQICKSIQLQLNIGVEQIRVVHRDGRVITLSYQEQELQDFLLSQMSQHQVHAVQQLAKVMGWQVLSFSNHVGLGPIESIGNASAITVASPSGDYAISVRNGPESGSKIMVQFPRNQCKDLPKSDVLQDNKWSHLRGPFKEVQWNKMEGRNFVYKMELLMSALSPCLL
B7: MED31 (endogenous) (natural protein)
chain: MAAAVAMETDDAGNRLRFQLELEFVQCLANPNYLNFLAQRGYFKDKAFVNYLKYLLYWKDPEYAKYLKYPQCLHMLELLQYEHFRKELVNAQCAKFIDEQQILHWQHYSRKRMRLQQALAEQQQQNNTSGK
B8: MED14 (endogenous) (natural protein)
chain: not shown
B9: MED10 (endogenous) (natural protein)
chain: MAEKFDHLEEHLEKFVENIRQLGIIVSDFQPSSQAGLNQKLNFIVTGLQDIDKCRQQLHDITVPLEVFEYIDQGRNPQLYTKECLERALAKNEQVKGKIDTMKKFKSLLIQELSKVFPEDMAKYRSIRGEDHPPS
B10: MED22 (endogenous) (natural protein)
chain: MAQQRALPQSKETLLQSYNKRLKDDIKSIMDNFTEIIKTAKIEDETQVSRATQGEQDNYEMHVRAANIVRAGESLMKLVSDLKQFLILNDFPSVNEAIDQRNQQLRTLQEECDRKLITLRDEISIDLYELEEEYYSSSSSLCEANDLPLCEAYGRLDLDTDSADGLSAPLLASPEPSAGPLQVAAPAHSHAGGPGPTEHA

The target in experiment [1] is recombinant human CDK8-Flag (baculovirus) (human, UniProt P49336 1-464). The experiment is described as follows: cryo-EM structure.
recombinant human CDK8-Flag (baculovirus), sequence (P49336 whole entry): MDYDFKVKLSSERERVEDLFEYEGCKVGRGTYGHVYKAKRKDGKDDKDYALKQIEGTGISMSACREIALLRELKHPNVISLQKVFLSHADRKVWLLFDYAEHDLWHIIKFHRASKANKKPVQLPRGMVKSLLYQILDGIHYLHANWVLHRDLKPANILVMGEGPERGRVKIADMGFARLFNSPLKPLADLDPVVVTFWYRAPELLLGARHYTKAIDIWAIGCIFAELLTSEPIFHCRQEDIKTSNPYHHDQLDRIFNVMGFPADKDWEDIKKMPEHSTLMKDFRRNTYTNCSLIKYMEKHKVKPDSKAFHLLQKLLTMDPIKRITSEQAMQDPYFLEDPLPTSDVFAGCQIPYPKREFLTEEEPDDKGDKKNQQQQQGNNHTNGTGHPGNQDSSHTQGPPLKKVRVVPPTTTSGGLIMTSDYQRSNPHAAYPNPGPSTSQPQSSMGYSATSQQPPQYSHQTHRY
In experiment [2] the target is recombinant human MED12-HA (baculovirus) (human, UniProt Q93074 1-2177). Put plainly: cryo-EM structure.
Another experiment concerns the target MED12 (endogenous) (human (endogenous in 293-F), UniProt Q93074 1-2177). The experiment is described as follows: cross-linking.
Experiment [3] has as its target T1, MED13 (endogenous) (human (endogenous in 293-F), UniProt Q9UHV7 1-2174). Put plainly: cross-linking.
The next experiment deals with MED13L (endogenous) (human (endogenous in 293-F), UniProt Q71F56 1-2210). The experiment is described as follows: cross-linking.
MED13L (endogenous), sequence (Q71F56 whole entry): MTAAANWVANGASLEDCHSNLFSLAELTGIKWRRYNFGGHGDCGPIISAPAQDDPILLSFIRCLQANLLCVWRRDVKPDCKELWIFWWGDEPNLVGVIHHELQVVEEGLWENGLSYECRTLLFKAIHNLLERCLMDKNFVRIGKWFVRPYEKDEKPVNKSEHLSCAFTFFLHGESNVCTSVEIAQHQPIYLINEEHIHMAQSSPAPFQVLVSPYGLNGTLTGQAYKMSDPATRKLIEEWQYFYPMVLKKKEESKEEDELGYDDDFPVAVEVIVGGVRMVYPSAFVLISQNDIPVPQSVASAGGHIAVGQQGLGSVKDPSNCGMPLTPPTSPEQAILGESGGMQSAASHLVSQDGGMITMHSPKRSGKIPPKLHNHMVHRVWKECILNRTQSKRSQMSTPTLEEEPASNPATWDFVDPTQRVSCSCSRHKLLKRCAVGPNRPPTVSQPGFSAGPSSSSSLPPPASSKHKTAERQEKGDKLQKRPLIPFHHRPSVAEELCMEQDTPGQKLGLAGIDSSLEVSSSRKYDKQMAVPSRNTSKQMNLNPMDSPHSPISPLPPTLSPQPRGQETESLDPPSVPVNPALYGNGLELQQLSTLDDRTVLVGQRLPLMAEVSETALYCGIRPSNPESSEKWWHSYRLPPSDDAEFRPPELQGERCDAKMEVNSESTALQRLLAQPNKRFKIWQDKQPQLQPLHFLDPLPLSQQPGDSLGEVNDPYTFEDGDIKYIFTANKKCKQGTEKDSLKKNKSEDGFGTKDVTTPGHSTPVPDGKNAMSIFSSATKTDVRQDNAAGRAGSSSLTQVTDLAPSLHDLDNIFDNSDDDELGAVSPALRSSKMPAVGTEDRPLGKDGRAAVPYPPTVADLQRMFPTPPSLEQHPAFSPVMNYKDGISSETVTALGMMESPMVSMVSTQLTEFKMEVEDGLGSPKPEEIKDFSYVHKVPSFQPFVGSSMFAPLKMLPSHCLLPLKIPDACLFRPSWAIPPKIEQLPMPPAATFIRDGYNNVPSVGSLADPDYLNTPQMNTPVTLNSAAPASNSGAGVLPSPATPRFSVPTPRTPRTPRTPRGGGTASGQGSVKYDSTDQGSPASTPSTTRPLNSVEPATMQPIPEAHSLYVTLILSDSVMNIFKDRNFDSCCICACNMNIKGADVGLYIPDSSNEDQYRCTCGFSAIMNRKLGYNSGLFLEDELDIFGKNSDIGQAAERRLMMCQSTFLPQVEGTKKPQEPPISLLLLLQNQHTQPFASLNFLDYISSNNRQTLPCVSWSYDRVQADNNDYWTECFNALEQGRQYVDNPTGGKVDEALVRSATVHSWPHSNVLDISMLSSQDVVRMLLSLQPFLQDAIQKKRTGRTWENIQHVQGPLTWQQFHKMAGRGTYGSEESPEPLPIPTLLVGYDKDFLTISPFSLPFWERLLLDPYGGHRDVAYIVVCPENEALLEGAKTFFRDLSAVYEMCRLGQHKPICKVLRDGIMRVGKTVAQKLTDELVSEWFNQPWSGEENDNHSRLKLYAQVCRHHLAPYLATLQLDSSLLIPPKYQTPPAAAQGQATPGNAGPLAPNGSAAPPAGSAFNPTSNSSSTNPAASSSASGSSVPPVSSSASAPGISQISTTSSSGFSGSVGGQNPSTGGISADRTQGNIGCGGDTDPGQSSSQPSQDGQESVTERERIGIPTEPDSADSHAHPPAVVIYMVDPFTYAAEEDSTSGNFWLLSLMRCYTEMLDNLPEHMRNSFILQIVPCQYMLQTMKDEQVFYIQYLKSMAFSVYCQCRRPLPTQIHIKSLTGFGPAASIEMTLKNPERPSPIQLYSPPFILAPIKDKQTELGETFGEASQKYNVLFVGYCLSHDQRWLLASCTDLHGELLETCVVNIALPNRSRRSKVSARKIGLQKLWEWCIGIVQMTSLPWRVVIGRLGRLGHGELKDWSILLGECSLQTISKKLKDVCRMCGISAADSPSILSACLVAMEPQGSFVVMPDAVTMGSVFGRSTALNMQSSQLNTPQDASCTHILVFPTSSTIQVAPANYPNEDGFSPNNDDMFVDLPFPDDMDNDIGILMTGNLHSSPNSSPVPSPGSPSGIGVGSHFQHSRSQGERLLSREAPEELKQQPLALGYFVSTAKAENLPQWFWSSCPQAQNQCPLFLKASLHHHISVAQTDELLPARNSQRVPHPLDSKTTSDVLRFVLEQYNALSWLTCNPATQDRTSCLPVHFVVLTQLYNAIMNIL
For the experiment “MED14 (endogenous)”, the target named is B8. Put plainly: cryo-EM structure.
Experiment [4] deals with T1, MED13 (endogenous). The experiment is described as follows: cryo-EM structure.
The target in another experiment is MED12L (endogenous) (human (endogenous in 293-F), UniProt Q86YW9 1-2145). Put plainly: cross-linking.

T1 sequence (Q9UHV7 whole entry): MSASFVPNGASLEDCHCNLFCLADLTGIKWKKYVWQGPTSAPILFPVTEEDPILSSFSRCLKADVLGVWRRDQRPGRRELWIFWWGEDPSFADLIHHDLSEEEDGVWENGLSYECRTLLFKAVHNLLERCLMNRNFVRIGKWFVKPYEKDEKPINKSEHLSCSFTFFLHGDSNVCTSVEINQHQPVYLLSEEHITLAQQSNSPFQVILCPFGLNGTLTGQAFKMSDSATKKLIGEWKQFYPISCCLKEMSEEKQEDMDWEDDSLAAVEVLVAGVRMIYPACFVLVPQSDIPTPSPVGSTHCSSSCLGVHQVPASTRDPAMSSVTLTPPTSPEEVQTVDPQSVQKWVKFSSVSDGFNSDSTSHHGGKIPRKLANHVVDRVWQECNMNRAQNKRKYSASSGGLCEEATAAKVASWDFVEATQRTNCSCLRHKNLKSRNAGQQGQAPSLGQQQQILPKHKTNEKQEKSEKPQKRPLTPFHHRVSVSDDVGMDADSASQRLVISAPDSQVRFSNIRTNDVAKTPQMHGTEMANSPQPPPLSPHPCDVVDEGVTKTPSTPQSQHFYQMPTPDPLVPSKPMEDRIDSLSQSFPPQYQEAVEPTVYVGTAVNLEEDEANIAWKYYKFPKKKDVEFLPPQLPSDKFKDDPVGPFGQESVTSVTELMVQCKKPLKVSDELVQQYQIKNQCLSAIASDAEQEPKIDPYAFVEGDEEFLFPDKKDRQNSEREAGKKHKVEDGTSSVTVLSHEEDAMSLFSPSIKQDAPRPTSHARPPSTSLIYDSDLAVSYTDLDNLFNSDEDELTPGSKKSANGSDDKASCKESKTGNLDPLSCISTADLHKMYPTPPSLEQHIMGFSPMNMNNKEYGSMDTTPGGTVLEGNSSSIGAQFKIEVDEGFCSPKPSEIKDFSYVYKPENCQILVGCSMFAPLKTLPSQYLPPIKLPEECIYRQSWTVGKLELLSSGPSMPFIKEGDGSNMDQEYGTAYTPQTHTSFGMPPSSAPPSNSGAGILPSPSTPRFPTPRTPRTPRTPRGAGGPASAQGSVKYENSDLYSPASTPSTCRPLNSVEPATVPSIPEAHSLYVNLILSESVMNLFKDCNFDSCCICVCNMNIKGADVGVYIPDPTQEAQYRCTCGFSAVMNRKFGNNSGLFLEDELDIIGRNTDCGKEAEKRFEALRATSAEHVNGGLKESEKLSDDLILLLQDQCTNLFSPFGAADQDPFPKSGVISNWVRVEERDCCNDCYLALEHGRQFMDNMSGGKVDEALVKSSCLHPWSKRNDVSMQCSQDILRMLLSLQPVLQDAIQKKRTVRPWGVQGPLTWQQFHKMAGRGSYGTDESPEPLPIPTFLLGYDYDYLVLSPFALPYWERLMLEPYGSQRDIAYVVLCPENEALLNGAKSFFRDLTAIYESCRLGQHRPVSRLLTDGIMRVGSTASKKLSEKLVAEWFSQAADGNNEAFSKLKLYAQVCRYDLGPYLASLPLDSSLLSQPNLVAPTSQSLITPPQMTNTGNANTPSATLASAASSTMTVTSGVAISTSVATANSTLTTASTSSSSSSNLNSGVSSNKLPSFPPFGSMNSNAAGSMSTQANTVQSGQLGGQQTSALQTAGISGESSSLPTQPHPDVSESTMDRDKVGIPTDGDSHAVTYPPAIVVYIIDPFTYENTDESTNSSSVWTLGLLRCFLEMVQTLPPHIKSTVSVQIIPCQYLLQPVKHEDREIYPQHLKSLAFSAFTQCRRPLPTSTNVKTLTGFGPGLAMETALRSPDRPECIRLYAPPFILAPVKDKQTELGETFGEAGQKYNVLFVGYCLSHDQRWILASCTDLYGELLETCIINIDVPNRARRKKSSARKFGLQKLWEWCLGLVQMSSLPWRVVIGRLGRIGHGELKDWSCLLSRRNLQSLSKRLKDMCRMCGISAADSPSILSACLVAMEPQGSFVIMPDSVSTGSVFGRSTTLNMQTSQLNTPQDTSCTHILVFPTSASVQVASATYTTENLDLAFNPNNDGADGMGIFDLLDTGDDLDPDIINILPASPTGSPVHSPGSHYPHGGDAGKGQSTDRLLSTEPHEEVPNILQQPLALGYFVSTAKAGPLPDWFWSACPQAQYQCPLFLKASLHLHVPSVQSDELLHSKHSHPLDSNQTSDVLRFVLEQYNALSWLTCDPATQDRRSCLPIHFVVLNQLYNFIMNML

In the case of B1, the binding result in experiment [1] and in experiment [2] was “binds” throughout.

Regarding B2, the binding result with MED12 (endogenous) is reported as “binds”.

In the case of B3, the binding result with MED13 (endogenous) [3] and in the experiment with MED13L (endogenous) was “binds” in each case.

With B4, the binding result with MED13L (endogenous) is “binds”.

With B5, the binding result in the experiment with MED12 (endogenous), with MED14 (endogenous) and with MED13 (endogenous) [4] was “binds” each time.

As to B6, in the experiment with MED13L (endogenous), the binding result is on record as “binds”.

Regarding B7, in the experiment with MED13 (endogenous) [3], the binding result is recorded as “binds”.

Regarding B8, in the experiment with MED13L (endogenous), the binding result is “binds”.

B9: the binding result with MED12L (endogenous), with MED13 (endogenous) [3], with MED12 (endogenous) and in the experiment with MED14 (endogenous) was “binds” throughout.

Consider B10, for which the binding result with MED13L (endogenous) was “binds”.
